# Measured values reported in the nanobody polyreactivity screen of Harvey et al. (2022).
# Assay: yeast display, Sf9 membrane polyspecificity reagent, FACS + sequencing; frameworks hold sequencing errors
# Outline: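 A synthetic nanobody library was expressed on Saccharomyces cerevisiae BJ5465 by galactose induction for 36–48 hours. The library was stained for 1 hour at 4 °C with 10% biotinylated, detergent-solubilized Sf9 membrane reagent and enriched with streptavidin microbeads before FACS. Low and high (top ~1%) gates were set on anti-HA fluorescence for expression and streptavidin fluorescence for reagent binding, and each polyreactivity label reflects the gate of origin.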
row,Sequence,polyreactivity (PSR sort gate)
1,QVQHVESGGGLVQAGGSLRLSCASSGSTSGIHAMGWYRQAPGKDRELVAAIRLSGGRTYYADSVKGRFTISRDNAKNTVYLQMNSLKPEDTAVYFCNALYRQARIRATYDYWGQGTQVSVSS,high polyreactivity
2,QVHLVESGGGLVQAGGSLRLICAASGRIFTKYAMGCYRQAPGKEREVVAAISYRGGSTYYADSVKGRFTISRDNAKNTVYLQMNILKPEDTAVYYCAAYATSTRYCYWGQGTQVTVSS,high polyreactivity
3,QVQRVESGGGLVQAGGSLRLSCAASGSTIAKNAMGWYRQAPGKERELVAAISRGGNTYYADSVKGRFTISRDNAKNTVYLQMNSLKPEDTAVYYCAARYLYRSLKMDYWGQGTQVTVSS,high polyreactivity
4,QVQLVESGGGLVQAGGSLRLSCAASGRTFVTNAMGWYRQAPGKERELVAAISSSGGSTYYADSVKGRFTISRDNAKNTVFLQMNSLKPEDTAVYYCAVGGQTKGQYDYWGQGTQVTVSS,low polyreactivity
5,QFQLVESGGGVVQAGGRLRLSCAASGSNFPRYAMGWYIQAPGKERELVAAISSSGGDTYYADSVKGLYTISRDNAKNTVYLQMNSLKPEDTAVYYCAALGAFPSLEFDYCGQGTQVTVSS,low polyreactivity
6,QVQLVESGGGIVQAGGSLRLSCAASGSTLGSNSMGWYRQAPGKERELVAAITWSGGTTYYADSVKGRFTISRDNAKNTVYLQMNSLKPEYTAVYYCATGQSVIYRYEYWGQGTQVTVSS,low polyreactivity
7,LGQLVESGGGLVQAGGSLRLSCAASGFIFYYYDMGLYRQAPGKESELVATISRGGSRYYADSVKGRFTISRDNAKNTVYLQMNSLKPEDTAVYYCAAYRSFGYRNWNRFDYWGQGTQVTVSS,high polyreactivity
8,QVQLVESGGGVVQAGGSLRLSCAASGFISKLYAMGWYRQAPGKEREMVAAISSSGTSTYYADSVKGRFTISRDHANNTVYLQMNSLKPEDTAVYYCNARWYVRAYEYDYWGQGTQVTVSS,low polyreactivity
9,QVQLVESGGGLVQAGGSLRLSCAASGSIFQHYAMGWYRQAPGKERELVARISYSGGNTYYADSVKGRFTISRDNAKNTVYLQMNSLKPEDTAVYYCAATRSHYPYRSGGDYWGQGTQVTVSS,low polyreactivity
10,QVQLVESGGGLVQAGGSLRLSCAASGLIFGTNAMGWYRQAPGKERELVAAISGSGGRTYYADSVKGRFTISRDNAKNTVYLQMNSLKPEDTAVYYCAADYVYGTRDDYWGQGTQVTVSS,high polyreactivity
11,QVQLVESGGGLVQAGGSLRLSCAASGLTLRYYVMGWNSQAPGKERELVAAISSGGGSTYYADSVKGRFTISRDNAKNTVYLQMNSRKPEDTAVYYCAADSVSRYNGYDYWGQGTQVTVSS,high polyreactivity
12,QVQLVESGGGLVQAGGSLRLSCAASGRTFYRNAMGWYRQAPGKEREFVAVISVSGGSTYYADSVKGRFTISRDNAKNTVYLQMNSLKPEDTAVSYCAADDYYLAGDYWGQGTQVTVSS,low polyreactivity
13,QVQLVESGGGLVQAGGSLRLSCAASGSILYVNAMGWYTQEPGKERELVAAITVSGGSTYYADSVKGRFTISRDNAKNTVYLQMNSLKPEDTAVFYCAAPALGNYFYGYDYCGQGTQVTVSS,low polyreactivity
14,QVQLVESGGGLVQAGGSLRLSCAASGRIFYYYAMGWYRQAPRKERELVAAISWSDDSTYYADSVKGRFTISRDNAKNTVYLQMNSLKPEDTAVYYCAADSIHYQFDYWGQGTQVTVSS,low polyreactivity
15,QGQLVETGGGLGQAGGSLRLSCAASGRIFPTNAMGWSRPAPGKERELVAAIPVSGGSTFYADSVKGRFTISRDNAKNTVYLQLNSLKPDDTAVDDCAVDDRASVGSRLDHWGQGTQVTVSS,low polyreactivity
16,QVQLVESGGGLVQAGGSLRLSCAAYGLTLGRNAMGWYRQAPGKERELVAAITQSGGSTYYADSVKGRFTISRDNAKITVYLQMNSLKPEDTAVFYGAAQYSWGHYYTFDYWGQGTQVTVSS,low polyreactivity

row,Sequence,polyreactivity (PSR sort gate)
1,QVQLVESGGGLVQAGGSLRLSCAASGNIFDGYAMGWYRQAPGKEREMVAAITSSAGSTYYADSVKGRFTISRDNAKNTVYLQMNSLKPEDTAVYYCNKVTKYRPIEGSWGQGTQVTVSS,high polyreactivity
2,QVQLVESGGGLVQAGGSLRLSCAASGSTFDVNAMGWYRQAPGKERELVAVITSGGSTNYADSVKGRFTISRDNAKNTVYLQMNSLKPEDTAVYYCAKDSRTLYDYWGQGTQVTVSS,low polyreactivity
3,QVQLVESGGGLVQAGGSLRLSCAASVRTFKFYAMGWYRQAPGKERELVAAITSSGGSTYYADSVKGRFTISRVNAKNTVYLQMNSLKPEDTAVYYCAAVGYKGYGYDYWGQGTQVTVSS,high polyreactivity
4,QVQLVESGGGLVQAGGSLRLSCAASGSTFPLYTMGWYRQAPGKEREFVAAISRSGGSTYYADSVKGRFTISRDNAKNTVFLQINSLKPEDTAVYYCDTRSYKSRTYDYWGQGTQVSVSS,high polyreactivity
5,QVQLVESGGGLVQAGGSLRLSSAASGRIFAVYAMGWYRQAPGKEREFVAAISYSGGITYYADSVKGRFTISRDNAKNTVYLQMNSLKPEDTAVYYCNAYYYFWGQGTQVTVSS,low polyreactivity
6,QVQLVESGGGLVQAGGSLRLSCAASGSTSDIYAMGWYRQAPGKEREFVAAISLTGGTTYYADSVKGRFTISCDNAKNTVYLQMNSLKPEDTAVYYCNADVGWWGYDDDYWGQGTQVTVSS,high polyreactivity
7,QVQLVESGGGLFQAGGSLRLSCAASGFIFYYNTMGWYRQAPGKERELVAAISSGGRTYYADSVKGRFTISRDNAKNTVYLQMNSLKPEDTAVYYCNVVTYVKYGCWGQGTQVTVSS,high polyreactivity
8,QVQLVESGGGLFQAGGSLRLSCAASGSTFDTNVMGWYRQAPGKERELVAAIDVSGGSTYYADSVKGRFTISRDNAKNTVYLQMNSLKPEDTAVYYCAAEGTTWYYDMDYWGQGTQVTVSS,low polyreactivity
9,QVQLVESGGGLVQAGGSLRLSCAASGSIFGIYAMGWYRQAPGKERELVAAIRVSDGRTYYADSVKGRFTISRDNAKNTVYLQMNSLKPEDTAVYYCAAESQSSYGPYDYWGQGTQVTVSS,low polyreactivity
10,QVQLVESGGGLVQEGGSLRLSCAASGSIVTLYAMGWSRQAPGKERELVAAITWYGGSTYYADSVKGRFTISRDNAKNTVYLQMNSLKPEDTAVYYCAKDYLAGGPCEGHVEREYDYWGQGTQVTVSS,low polyreactivity
11,QVQLVESGGGLVQAGGSLRLSCAASGSTFTNYAMGRYRQSAGKERELLAAINSGGSTHYADSVKGRFTISRDNANNTVYLQMYSLKPEDTAVYYCDADPSALVYYWRWLGYDYWGQGTQVTVSS,high polyreactivity
12,QVQLVESGGGLLQAGGSLRLSCAASGFTIYRYAMGWYRQATGKERELVAAITGGGGSTYYADSVKGRFTISRDNAKNTVYLQMNSLKPEDTAVYYCAVDVYHIGQYRWSYGYWGQGTQVTVSS,low polyreactivity
13,QVQLVESGGGLVQAGGSLRLSCAASGYIVRNAMGWYRQAPGKERQLVAAISRRGGSTYYADSVKGRFTISRDNAKNTVYLQLNSLKPEDTAVYYCAKDKVIPSFDADYYDWGQGTQVTVSS,high polyreactivity
14,QVQLVESGGGLVQAGGRLRLSCAASGITCYRYVMGWYRQAPGKERELVAAITSRGGSTSYADSVKGRFTISRDNAQNTVYLQMNSLKPEDTAVYYCAAVYRRDYDYWGQGTQVTVSS,high polyreactivity
15,QVQLVETGGGLVQAGGSLRLSCAASGLIFTINAMGWYRQAPGKERELVAAITNGDSTHYADSVKGRFTISRDNAKNTVYLQMNSLKPEDTAVYYCAARSYTYYGLRFGYWGQGTQVTVSS,high polyreactivity
16,QVQLVESGGGLVQAGGSLRLSCAASGSIFYYAMGWYREAPGKERELVAAISRSGGSTYYADSVKGRFTISRDNAKNTVYLQMNSLKPEDTAVYYCAKGYRGYSYGYWRQGTQVTVSS,high polyreactivity
